The nature of the data set: melting temperature; melt of duplexes. To be noted: sodium 0.0675 M; strand 1 µM.
By Tm is commonly meant the temperature at the midpoint of the melting transition. In the case of “CGACGTGCTTCATGTGCTG+CAGCACATACGGCACGTCG ((((((((...((((((((+))))))))...))))))))”, the Tm came to 47.7 °C.
As for “CGACGTGCCATATGTGCTG+CAGCACATACAGCACGTCG ((((((((..(((((((((+)))))))))..))))))))”, the figure is 49.9 °C; as for “CGACGTGCAACATGTGCTG+CAGCACATGGGGCACGTCG ((((((((..(((((((((+)))))))))..))))))))”, 58.9 °C; as for “CGACGTGCCTAATGTGCTG+CAGCACATCGTGCACGTCG ((((((((...((((((((+))))))))...))))))))”, 43.1 °C.
As for “CGACGTGCGTGATGTGCTG+CAGCACATTATGCACGTCG ((((((((.(.((((((((+)))))))).).))))))))”, the figure is 54.5 °C; as for “CGACGTGCATGATGTGCTG+CAGCACATTTCGCACGTCG ((((((((...((((((((+))))))))...))))))))”, 48.7 °C; as for “CGACGTGCTCCATGTGCTG+CAGCACATTTCGCACGTCG ((((((((...((((((((+))))))))...))))))))”, 45.7 °C.
As for “CGACGTGCACTATGTGCTG+CAGCACATGTCGCACGTCG ((((((((...((((((((+))))))))...))))))))”, the figure is 46.4 °C.
In the case of “CGACGTGCCAGATGTGCTG+CAGCACATCGCGCACGTCG ((((((((..(((((((((+)))))))))..))))))))”, the midpoint of thermal melting (Tm) is 55.4 °C.
As for “CGACGTGCGTCATGTGCTG+CAGCACATAGCGCACGTCG (((((((((..((((((((+))))))))..)))))))))”, the figure is 55.1 °C.
For the substance “CGACGTGCGGTATGTGCTG+CAGCACATCTTGCACGTCG ((((((((...((((((((+))))))))...))))))))”, the Tm was 50.7 °C.
Consider “CGACGTGCGGGATGTGCTG+CAGCACATTACGCACGTCG (((((((((..((((((((+))))))))..)))))))))”, for which the midpoint of thermal melting (Tm) was 58 °C.
Turning to “CGACGTGCGGTATGTGCTG+CAGCACATAACGCACGTCG (((((((((.(((((((((+))))))))).)))))))))”, the Tm was 61.4 °C.
As for “CGACGTGCGATATGTGCTG+CAGCACATGAAGCACGTCG ((((((((...((((((((+))))))))...))))))))”, the figure is 56.1 °C.
Next, “CGACGTGCCCAATGTGCTG+CAGCACATGCCGCACGTCG ((((((((...((((((((+))))))))...))))))))”: 48.9 °C.
Next, “CGACGTGCCATATGTGCTG+CAGCACATACTGCACGTCG ((((((((..(((((((((+)))))))))..))))))))”: 49.3 °C; “CGACGTGCGCCATGTGCTG+CAGCACATACCGCACGTCG (((((((((..((((((((+))))))))..)))))))))”: 51 °C.
As to “CGACGTGCAAAATGTGCTG+CAGCACATCGCGCACGTCG ((((((((...((((((((+))))))))...))))))))”, the melting temperature (Tm) was 48.9 °C.
Next, “CGACGTGCCGGATGTGCTG+CAGCACATTAGGCACGTCG (((((((((..((((((((+))))))))..)))))))))”: 57 °C; “CGACGTGCATCATGTGCTG+CAGCACATGAGGCACGTCG ((((((((.((((((((((+)))))))))).))))))))”: 60.8 °C.
As for “CGACGTGCCTGATGTGCTG+CAGCACATGGAGCACGTCG ((((((((...((((((((+))))))))...))))))))”, the figure is 51.6 °C; as for “CGACGTGCCCGATGTGCTG+CAGCACATTATGCACGTCG ((((((((...((((((((+))))))))...))))))))”, 48.4 °C.
As for “CGACGTGCACAATGTGCTG+CAGCACATCCTGCACGTCG (((((((((..((((((((+))))))))..)))))))))”, the figure is 47.1 °C.
For the substance “CGACGTGCGAGATGTGCTG+CAGCACATGGTGCACGTCG ((((((((...((((((((+))))))))...))))))))”, the Tm worked out at 48.5 °C.
Next, “CGACGTGCATAATGTGCTG+CAGCACATACGGCACGTCG ((((((((...((((((((+))))))))...))))))))”: 47.3 °C; “CGACGTGCGCTATGTGCTG+CAGCACATAGCGCACGTCG (((((((((((((((((((+)))))))))))))))))))”: 66.4 °C.
Next, “CGACGTGCGCGATGTGCTG+CAGCACATTCCGCACGTCG (((((((((..((((((((+))))))))..)))))))))”: 54.9 °C; “CGACGTGCTTGATGTGCTG+CAGCACATAAGGCACGTCG ((((((((.(.((((((((+)))))))).).))))))))”: 52.3 °C.
As for “CGACGTGCAGTATGTGCTG+CAGCACATGACGCACGTCG ((((((((...((((((((+))))))))...))))))))”, the figure is 49.1 °C.
For the substance “CGACGTGCGTCATGTGCTG+CAGCACATGAAGCACGTCG ((((((((.((((((((((+)))))))))).))))))))”, the midpoint of thermal melting (Tm) was determined as 59.4 °C.
As for “CGACGTGCTGGATGTGCTG+CAGCACATGCCGCACGTCG ((((((((.(.((((((((+)))))))).).))))))))”, the figure is 53.6 °C; as for “CGACGTGCGTCATGTGCTG+CAGCACATTCAGCACGTCG ((((((((...((((((((+))))))))...))))))))”, 51.3 °C; as for “CGACGTGCGCTATGTGCTG+CAGCACATTGTGCACGTCG ((((((((.(.((((((((+)))))))).).))))))))”, 51.9 °C.
As for “CGACGTGCACCATGTGCTG+CAGCACATCTTGCACGTCG (((((((((..((((((((+))))))))..)))))))))”, the figure is 45.7 °C; as for “CGACGTGCCGAATGTGCTG+CAGCACATGGCGCACGTCG ((((((((...((((((((+))))))))...))))))))”, 51.5 °C; as for “CGACGTGCTTAATGTGCTG+CAGCACATTTTGCACGTCG ((((((((..(((((((((+)))))))))..))))))))”, 52.5 °C.
As for “CGACGTGCCGGATGTGCTG+CAGCACATAGAGCACGTCG ((((((((...((((((((+))))))))...))))))))”, the figure is 50.2 °C.
For the substance “CGACGTGCTAGATGTGCTG+CAGCACATGTAGCACGTCG ((((((((((.((((((((+)))))))).))))))))))”, the melting temperature (Tm) was found to be 56.8 °C.
Next, “CGACGTGCTAAATGTGCTG+CAGCACATGGTGCACGTCG ((((((((...((((((((+))))))))...))))))))”: 49.9 °C; “CGACGTGCTTCATGTGCTG+CAGCACATACTGCACGTCG ((((((((...((((((((+))))))))...))))))))”: 48.3 °C; “CGACGTGCTTTATGTGCTG+CAGCACATGAGGCACGTCG ((((((((.(.((((((((+)))))))).).))))))))”: 52.8 °C.
Consider “CGACGTGCGTTATGTGCTG+CAGCACATCCTGCACGTCG ((((((((...((((((((+))))))))...))))))))”, for which the Tm worked out at 49.2 °C.
For the substance “CGACGTGCGATATGTGCTG+CAGCACATGCCGCACGTCG (((((((((..((((((((+))))))))..)))))))))”, the Tm is 54.8 °C.
Regarding “CGACGTGCTGGATGTGCTG+CAGCACATCCAGCACGTCG (((((((((((((((((((+)))))))))))))))))))”, the midpoint of thermal melting (Tm) turned out to be 65.5 °C.
Next, “CGACGTGCAAAATGTGCTG+CAGCACATAAAGCACGTCG ((((((((...((((((((+))))))))...))))))))”: 50.8 °C.
Next, “CGACGTGCCCTATGTGCTG+CAGCACATATAGCACGTCG ((((((((..(((((((((+)))))))))..))))))))”: 49.6 °C; “CGACGTGCTGGATGTGCTG+CAGCACATCTAGCACGTCG (((((((((.(((((((((+))))))))).)))))))))”: 60 °C; “CGACGTGCTGGATGTGCTG+CAGCACATGTTGCACGTCG ((((((((...((((((((+))))))))...))))))))”: 51.4 °C.
In the case of “CGACGTGCTTCATGTGCTG+CAGCACATTCGGCACGTCG ((((((((...((((((((+))))))))...))))))))”, the Tm came out at 48.1 °C.
In the case of “CGACGTGCTGCATGTGCTG+CAGCACATACCGCACGTCG ((((((((.(.((((((((+)))))))).).))))))))”, the melting temperature (Tm) came to 50.7 °C.
Next, “CGACGTGCCATATGTGCTG+CAGCACATTAGGCACGTCG (((((((((..((((((((+))))))))..)))))))))”: 55.6 °C; “CGACGTGCAAAATGTGCTG+CAGCACATATTGCACGTCG ((((((((((.((((((((+)))))))).))))))))))”: 54.7 °C; “CGACGTGCCAAATGTGCTG+CAGCACATGGTGCACGTCG ((((((((...((((((((+))))))))...))))))))”: 48.9 °C.
As for “CGACGTGCCGGATGTGCTG+CAGCACATATGGCACGTCG (((((((((..((((((((+))))))))..)))))))))”, the figure is 57.2 °C; as for “CGACGTGCGAAATGTGCTG+CAGCACATTATGCACGTCG ((((((((..(((((((((+)))))))))..))))))))”, 53.6 °C; as for “CGACGTGCATTATGTGCTG+CAGCACATGATGCACGTCG ((((((((((.((((((((+)))))))).))))))))))”, 58.1 °C.
Next, “CGACGTGCGCGATGTGCTG+CAGCACATGATGCACGTCG ((((((((...((((((((+))))))))...))))))))”: 51 °C; “CGACGTGCTCTATGTGCTG+CAGCACATAAGGCACGTCG ((((((((..(((((((((+)))))))))..))))))))”: 52.2 °C.
In the case of “CGACGTGCGCGATGTGCTG+CAGCACATCCTGCACGTCG ((((((((..(((((((((+)))))))))..))))))))”, the Tm turned out to be 54.4 °C.
Turning to “CGACGTGCCAGATGTGCTG+CAGCACATTTGGCACGTCG ((((((((((.((((((((+)))))))).))))))))))”, the Tm came to 59.3 °C.
For “CGACGTGCTTAATGTGCTG+CAGCACATCTGGCACGTCG ((((((((...((((((((+))))))))...))))))))”, the melting temperature (Tm) was 49.7 °C.
On to “CGACGTGCAAGATGTGCTG+CAGCACATTCTGCACGTCG (((((((((..((((((((+))))))))..)))))))))”, for which the Tm worked out at 53.2 °C.
As for “CGACGTGCGATATGTGCTG+CAGCACATTCCGCACGTCG (((((((((..((((((((+))))))))..)))))))))”, the figure is 53.8 °C; as for “CGACGTGCGGGATGTGCTG+CAGCACATACGGCACGTCG ((((((((.(.((((((((+)))))))).).))))))))”, 55.6 °C; as for “CGACGTGCTCCATGTGCTG+CAGCACATTTGGCACGTCG ((((((((...((((((((+))))))))...))))))))”, 48.3 °C.
Regarding “CGACGTGCTAGATGTGCTG+CAGCACATAGTGCACGTCG ((((((((...((((((((+))))))))...))))))))”, the melting temperature (Tm) was 46.1 °C.

The values are drawn from the array DNA melting data of Ke et al..
